# Source: patent publication US20190153112A1 (IMMUTEP S A S, published 2019)
# Columns and labels:
# [1] = target: human LAG-3 protein (Lymphocyte activation gene-3) on the cell surface (human) (UniProt P18627); assay: flow cytometry on CD8+ cells of SEB-stimulated PBMCs (Donor 1); antibody 29 ng/ml
# [2] = target: human LAG-3 protein (Lymphocyte activation gene-3) on the cell surface (human) (UniProt P18627); assay: flow cytometry on CD8+ cells of SEB-stimulated PBMCs (Donor 1); antibody 1.6 ng/ml
# [3] = target: human LAG-3 protein (Lymphocyte activation gene-3) on the cell surface (human) (UniProt P18627); assay: flow cytometry on LAG-3-transfected CHO cells; antibody 500 ng/ml
# [4] = target: IMP321 (recombinant soluble human LAG-3Ig fusion protein) (human) (UniProt P18627); assay: FACS, LAG-3Ig-Alexa 488 (1 µg/ml) with antibody 0 ng/ml (no-antibody value), bound to Raji (MHC class II+) cells
# Chain of IMP321 (recombinant soluble human LAG-3Ig fusion protein) (human) (P18627 23-450): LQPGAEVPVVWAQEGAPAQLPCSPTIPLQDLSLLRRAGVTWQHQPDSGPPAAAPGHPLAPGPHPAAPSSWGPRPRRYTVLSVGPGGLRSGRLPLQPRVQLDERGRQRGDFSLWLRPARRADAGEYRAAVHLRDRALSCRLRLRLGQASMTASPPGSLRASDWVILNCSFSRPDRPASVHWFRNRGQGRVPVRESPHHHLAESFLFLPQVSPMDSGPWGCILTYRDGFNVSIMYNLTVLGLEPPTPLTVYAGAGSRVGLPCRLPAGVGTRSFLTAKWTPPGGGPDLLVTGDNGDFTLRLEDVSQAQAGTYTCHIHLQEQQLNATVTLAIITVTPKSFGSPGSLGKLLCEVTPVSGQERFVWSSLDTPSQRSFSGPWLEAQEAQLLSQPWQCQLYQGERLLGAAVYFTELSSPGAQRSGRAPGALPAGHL
# [5] = target: human LAG-3 protein (Lymphocyte activation gene-3) on the cell surface (human) (UniProt P18627); assay: flow cytometry on CD4+ cells of SEB-stimulated PBMCs (Donor 1); antibody 10000 ng/ml
# [6] = target: human LAG-3 protein (Lymphocyte activation gene-3) on the cell surface (human) (UniProt P18627); assay: flow cytometry on CD4+ cells of SEB-stimulated PBMCs (Donor 1); antibody 7 ng/ml
# [7] = target: human LAG-3 protein (Lymphocyte activation gene-3) on the cell surface (human) (UniProt P18627); assay: flow cytometry on CD4+ cells of SEB-stimulated PBMCs (Donor 1); antibody 126 ng/ml
# [8] = target: IMP321 (recombinant soluble human LAG-3Ig fusion protein) (human) (UniProt P18627); assay: cell-based or functional assay
# [9] = target: human LAG-3 protein (Lymphocyte activation gene-3) on the cell surface (human) (UniProt P18627); assay: flow cytometry on LAG-3-transfected CHO cells; antibody 10000 ng/ml
# [10] = target: human LAG-3 protein (Lymphocyte activation gene-3) on the cell surface (human) (UniProt P18627); assay: flow cytometry on CD8+ cells of SEB-stimulated PBMCs (Donor 1); antibody 0 ng/ml (no-antibody background)
# [11] = target: IMP321 (recombinant soluble human LAG-3Ig fusion protein) (human) (UniProt P18627); assay: FACS, LAG-3Ig-Alexa 488 (1 µg/ml) pre-incubated with antibody 297 ng/ml, then bound to Raji (MHC class II+) cells
# [12] = target: human LAG-3 protein (Lymphocyte activation gene-3) on the cell surface (human) (UniProt P18627); assay: flow cytometry on CD8+ cells of SEB-stimulated PBMCs (Donor 1); antibody 541 ng/ml
# [13] = target: IMP321 (recombinant soluble human LAG-3Ig fusion protein) (human) (UniProt P18627); assay: FACS, LAG-3Ig-Alexa 488 (1 µg/ml) pre-incubated with antibody 27 ng/ml, then bound to Raji (MHC class II+) cells
# [14] = target: human LAG-3 protein (Lymphocyte activation gene-3) on the cell surface (human) (UniProt P18627); assay: flow cytometry on CD4+ cells of SEB-stimulated PBMCs (Donor 1); antibody 2326 ng/ml
# [15] = target: human LAG-3 protein (Lymphocyte activation gene-3) on the cell surface (human) (UniProt P18627); assay: flow cytometry on CD8+ cells of SEB-stimulated PBMCs (Donor 1); antibody 10000 ng/ml
# [16] = target: human LAG-3 protein (Lymphocyte activation gene-3) on the cell surface (human) (UniProt P18627); assay: flow cytometry on CD4+ cells of SEB-stimulated PBMCs (Donor 1); antibody 0 ng/ml (no-antibody background)
# [17] = target: human LAG-3 protein (Lymphocyte activation gene-3) on the cell surface (human) (UniProt P18627); assay: flow cytometry on CD8+ cells of SEB-stimulated PBMCs (Donor 1); antibody 126 ng/ml
# [18] = target: human LAG-3 protein (Lymphocyte activation gene-3) on the cell surface (human) (UniProt P18627); assay: flow cytometry on CD8+ cells of SEB-stimulated PBMCs (Donor 1); antibody 0.4 ng/ml
# [19] = target: IMP321 (recombinant soluble human LAG-3Ig fusion protein) (human) (UniProt P18627); assay: FACS, LAG-3Ig-Alexa 488 (1 µg/ml) pre-incubated with antibody 11000 ng/ml, then bound to Raji (MHC class II+) cells
# [20] = target: human LAG-3 protein (Lymphocyte activation gene-3) on the cell surface (human) (UniProt P18627); assay: flow cytometry on LAG-3-transfected CHO cells; antibody 2000 ng/ml
# [21] = target: human LAG-3 protein (Lymphocyte activation gene-3) on the cell surface (human) (UniProt P18627); assay: flow cytometry on CD8+ cells of SEB-stimulated PBMCs (Donor 1); antibody 7 ng/ml
# [22] = target: human LAG-3 protein (Lymphocyte activation gene-3) on the cell surface (human) (UniProt P18627); assay: flow cytometry on CD4+ cells of SEB-stimulated PBMCs (Donor 1); antibody 29 ng/ml
# [23] = target: human LAG-3 protein (Lymphocyte activation gene-3) on the cell surface (human) (UniProt P18627); assay: flow cytometry on CD4+ cells of SEB-stimulated PBMCs (Donor 1); antibody 541 ng/ml
# [24] = target: IMP321 (recombinant soluble human LAG-3Ig fusion protein) (human) (UniProt P18627); assay: FACS, LAG-3Ig-Alexa 488 (1 µg/ml) pre-incubated with antibody 990 ng/ml, then bound to Raji (MHC class II+) cells
# [25] = target: human LAG-3 protein (Lymphocyte activation gene-3) on the cell surface (human) (UniProt P18627); assay: flow cytometry on CD4+ cells of SEB-stimulated PBMCs (Donor 1); antibody 1.6 ng/ml
# [26] = target: human LAG-3 protein (Lymphocyte activation gene-3) on the cell surface (human) (UniProt P18627); assay: flow cytometry on CD4+ cells of SEB-stimulated PBMCs (Donor 1); antibody 0.4 ng/ml
# [27] = target: human LAG-3 protein (Lymphocyte activation gene-3) on the cell surface (human) (UniProt P18627); assay: flow cytometry on CD8+ cells of SEB-stimulated PBMCs (Donor 1); antibody 2326 ng/ml
# [28] = target: IMP321 (recombinant soluble human LAG-3Ig fusion protein) (human) (UniProt P18627); assay: FACS, LAG-3Ig-Alexa 488 (1 µg/ml) pre-incubated with antibody 89 ng/ml, then bound to Raji (MHC class II+) cells
# [29] = target: IMP321 (recombinant soluble human LAG-3Ig fusion protein) (human) (UniProt P18627); assay: FACS, LAG-3Ig-Alexa 488 (1 µg/ml) pre-incubated with antibody 3300 ng/ml, then bound to Raji (MHC class II+) cells
# [30] = target: human LAG-3 protein (Lymphocyte activation gene-3) on the cell surface (human) (UniProt P18627); assay: flow cytometry on LAG-3-transfected CHO cells; antibody 0 ng/ml (no-antibody background)
# Chain of human LAG-3 protein (Lymphocyte activation gene-3) on the cell surface (human) (P18627 other isoform, or with tags, fused parts or gaps): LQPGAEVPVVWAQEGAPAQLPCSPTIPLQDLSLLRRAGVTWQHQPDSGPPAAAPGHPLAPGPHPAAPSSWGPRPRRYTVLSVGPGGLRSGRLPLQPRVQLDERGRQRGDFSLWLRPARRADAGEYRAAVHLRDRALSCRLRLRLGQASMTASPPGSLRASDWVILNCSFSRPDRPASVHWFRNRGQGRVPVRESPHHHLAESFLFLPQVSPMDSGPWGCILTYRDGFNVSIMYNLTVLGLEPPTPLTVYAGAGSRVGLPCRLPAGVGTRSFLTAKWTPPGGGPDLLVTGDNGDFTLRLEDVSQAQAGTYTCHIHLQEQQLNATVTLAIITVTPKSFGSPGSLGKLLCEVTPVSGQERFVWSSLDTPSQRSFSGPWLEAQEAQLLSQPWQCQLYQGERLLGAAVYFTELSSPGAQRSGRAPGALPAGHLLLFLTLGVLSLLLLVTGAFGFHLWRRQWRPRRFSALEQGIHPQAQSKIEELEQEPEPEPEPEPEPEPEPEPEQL
substance,measurement,setting,value
isotype control antibody (mIgG1),MFI,[1],110 MFI
same,MFI,[2],116 MFI
same,MFI,[3],168 MFI
same,MFI of sLAG-3Ig-Alexa 488,[4],284 MFI
same,MFI,[5],116 MFI
same,MFI,[6],110 MFI
same,MFI,[7],109 MFI
same,[CCL4] in THP-1 monocytic cells supernatant; IMP321 20 ng/ml pre-incubated with antibody 2 ng/ml,[8],2050 pg/mL
same,[CCL4] in THP-1 monocytic cells supernatant; IMP321 20 ng/ml pre-incubated with antibody 20 ng/ml,[8],2140 pg/mL
same,[CCL4] in THP-1 monocytic cells supernatant; IMP321 20 ng/ml pre-incubated with antibody 200 ng/ml,[8],2220 pg/mL
same,[CCL4] in THP-1 monocytic cells supernatant; IMP321 20 ng/ml pre-incubated with antibody 2000 ng/ml,[8],2260 pg/mL
same,[CCL4] in THP-1 monocytic cells supernatant; IMP321 20 ng/ml pre-incubated with antibody 20000 ng/ml,[8],2900 pg/mL
same,"[CCL4] in THP-1 monocytic cells supernatant; IMP321 20 ng/ml, antibody 0 ng/ml (no-antibody value)",[8],2110 pg/mL
same,MFI,[9],440 MFI
same,MFI,[10],112 MFI
same,MFI of sLAG-3Ig-Alexa 488,[11],373 MFI
same,MFI,[12],120 MFI
same,MFI of sLAG-3Ig-Alexa 488,[13],254 MFI
same,MFI,[14],113 MFI
same,MFI,[15],140 MFI
same,MFI,[16],106 MFI
same,MFI,[17],115 MFI
same,MFI,[18],112 MFI
same,MFI of sLAG-3Ig-Alexa 488,[19],328 MFI
same,MFI,[20],251 MFI
same,MFI,[21],114 MFI
same,MFI,[22],108 MFI
same,MFI,[23],116 MFI
same,MFI of sLAG-3Ig-Alexa 488,[24],361 MFI
same,MFI,[25],127 MFI
same,MFI,[26],106 MFI
same,MFI,[27],137 MFI
same,MFI of sLAG-3Ig-Alexa 488,[28],324 MFI
same,MFI of sLAG-3Ig-Alexa 488,[29],359 MFI
same,MFI,[30],156 MFI
